The target in this test is Tag5-161P2F10B, purified recombinant extracellular domain (ECD) of 161P2F10B (amino acids 46-875) (human) (UniProt O14638). Nature of the test: SPR, MAb captured on CM5 chip, recombinant 161P2F10B 1-100 nM injected.

This note sets out measurements from patent US20060275211A1.

B1: H16-1.92.1.1 (antibody, part only; not given: light chain, V domains shown, part only)
VH: EVLLVESGPGLVKPSETLSLTCTVSGGSISSSSYFWGWIRQPPGKGLEWIGSIYYSGNTYYNPSLKSRVTISVDTSKNRFSLKLSSVTAADTAVYCCASATTVTTAFDIWGQGTMVTVSSASTKGPSVFPLAPSS
For the molecule B1, the Kd amounted to 9.8 nM, the koff is 0.00036 s⁻¹ and the kon was 37000 M⁻¹ s⁻¹.

B2: H16-1.29.1.1 (antibody, part only; not given: light chain, V domains shown, part only)
VH: CRLVESGAEVKKPGASVKVSCKASGYTFTGYYMHWVRQAPGQGLEWMGWINPNSGGTNYAQKFQGRVTMTRDTSISTAYMELSRLRSDDTAVYYCARDQVDIVATRYYYYYYGMDVWGQGTTVTVSSASTKGPSVFPLAPSSKST
Take B2: the Kd turned out to be 26 nM, the koff was found to be 0.00083 s⁻¹ and the on-rate (kon) came to 32000 M⁻¹ s⁻¹.
